The results in this text go back to patent US8722043B2, “Induction of p53 expression by neutralization of neuropilin-2 for the treatment of cancers” (Diaclone, priority 2008, dated 2014).

In assay [1] the test system is HT29ctrl cells. As to the kind of experiment: Annexin V-APC apoptosis test. It counts as cell-based, human. The settings on record: 0.5, 1 and 5 μg/ml; 16 hours. As to the method: In order to determine the ability of the ITAC-B1 antibody to induce apoptosis of tumour cells expressing NRP-2, an in vitro Annexin V-APC apoptosis test was carried out (BD Pharmingen, San Diego, Calif.). This test is based on the externalization of phosphatidylserin by apoptotic cells and on the binding of Annexin V-APC to this molecule.
1 ml of DMEM medium containing 10% of inactivated FCS and 100 000 HT29-NRP-2 cells or 100 000 HT29ctrl cells were seeded, per well, into a 24-well Nunc plate. After adhesion of the cells (3 hours), three concentrations of ITAC-B anti-NRP-2 antibody (0.5 μg/ml, 1 μg/ml and 5 μg/ml) were tested in various wells. In parallel, “cells alone” controls were carried out, as were negative controls (anti-human mouse IgG1 antibody (BZ1) at the same concentrations as the ITAC-B1 antibody).
After incubation for 16 hours, the culture supernatant was drawn off and 500 μl of trypsin-EDTA were added to each well and left in contact for 10 minutes. When the cells began to detach, 500 μl of DMEM medium-10% FCS were added per well. […]
For each of the panels of FIG. 12, the number of events (number of cells) is indicated on the y-axis and the fluorescence intensity (corresponding to the labelling of the cells with the Annexin V-APC) is represented on the x-axis. […]

Assay [2] concerns HT29-NRP-2 tumour cells. The experiment in a line: HT29-NRP-2 subcutaneous xenograft, tumour volume. In kind it is in vivo, immunodeficient mice. How it is done: HT29-NRP-2 tumour cells were injected subcutaneously into 20 immunodeficient mice, at a rate of 1×10^6 cells per mouse, in the right flank. 10 days after the injection, the tumours measure approximately 5 mm×5 mm.
In accordance with the protocol described above, group B was inoculated with ITAC-B1 at D0 (12 mg/kg), D3 (6 mg/kg), D7 (12 mg/kg) and D10 (6 mg/kg). Group C was inoculated with 20 mg/kg of 5-FU from D0 to D4 and then with 100 mg/kg at D9. Group D was inoculated with ITAC-B1 at D0 (12 mg/kg), D3 (6 mg/kg), D7 (12 mg/kg) and D10 (6 mg/kg) and with 20 mg/kg of 5-FU from D0 to D4 and 100 mg/kg of 5-FU at D9.
The tumours were measured twice a week, and the volume of the tumours was calculated with the formula: V (mm^3)=d^2×D/2.
FIG. 21 represents the tumour volume as a function of time. Group A (PBS control) is represented by (⋄), group B (mice inoculated with the ITAC-B1 antibody) is represented by (▪), group C (mice inoculated with 5-FU) is represented by (Δ), and group D (mice inoculated both with the ITAC-B1 antibody and with 5-FU) is represented by (x).

B1: ITAC-B1: anti-human neuropilin-2 murine monoclonal antibody, VH SEQ ID No. 2, VL SEQ ID No. 4, produced by hybridoma CNCM 1-4054 (antibody, listed as Mus musculus, V domains shown)
VH: EVKLQESGAELVKPGASVKLSCTVSGFNIKDTYIHWVIQRPEQGLEWLGRIDPANGNTKYDPKFQGKATITADTSSNTAYLQLSSLTSEDTAVYYCARWAVVGDYWGQGTTLTVSS
VL: YCDHPLYKFLHVSAGDRVTITCKASQSVSDDVAWYQQKPGQSPKLLIYSASNRYTGVPDRFTGSGYGTDFTFTISTVQPEDLAVYFCQQDYSSPTFGSGTKLELK
As for B1, in assay [1], the “apoptosis (Annexin V-APC labelling)” value was “does not bring about the apoptosis of cells not expressing NRP-2”. For the same molecule, the tumour volume result is “reduction in tumour volume is observed starting from D14” in assay [2] (group B: ITAC-B1 intraperitoneally D0 12 mg/kg, D3 6 mg/kg, D7 12 mg/kg, D10 6 mg/kg) and “more marked” in assay [2] (group D: ITAC-B1 combined with 5-FU, same regimens).
